Measurements published in US7799901B2, “Modulators of the function of FAS receptors and other proteins” (Yeda Research and Development Co. Ltd., priority 1995, dated 2010).

System: Fas/APO1 cytotoxicity (p55-Fas chimera) in 293-EBNA cells
Format: cell-based, human
Conditions: co-transfection
Description: In brief, 293-EBNA cells, MCF7 human breast carcinoma cells and HeLa HtTA-1 cells were grown in Dulbecco's modified Eagle's minimal essential medium supplemented with 10% fetal calf serum, nonessential amino acids, 100 U/ml penicillin and 100 μg/ml streptomycin. Cell tissue culture dishes (5×10^5 293-EBNA cells, 3×10^5 s MCF7 cells or 3×10^5 HeLa cells in 6-cm dishes) were transiently transfected, using the calcium phosphate precipitation method, with the cDNAs of the indicated proteins together with the β-galactosidase expression vector. In the experiments presented in FIGS. 14A-D and 15, each dish was transfected with 3.5 μg of the indicated MACH construct and 1.5 μg of pSV-β-gal. In the experiments presented in FIGS. 16A-D and 17-19, each dish was transfected with 2.5 μg of the indicated MACH or MORT1 construct (or, as control, empty vector) and 1.5 μg of pSV-β-gal. The cells were rinsed 6 to 10 h after transfection. The 293-EBNA and MCF7 cells were incubated for a further 18 h without additional treatment. […] The extent of cell death at the end of the incubation periods was assessed by determination of β-galactosidase expression, as described by Kumar et al, 1994. […]
In particular, FIGS. 16A-D show morphology of 293-EBNA cells in which cell death was induced by transient expression of a chimera comprised of the extracellular domain of the p55-R (amino acids 1-168) fused to the transmembrane and intracellular domains of Fas/APO1 (amino acids 153-319) (p55-Fas chimera) (FIGS. 16A and 16B), or by expression of the p55-R (FIGS. 16C and 16D), and of cells that were protected from these cytotoxic effects by their simultaneous transfection with MACHα1 (C360S) (FIGS. 16B and 16D). […] FIG. 17 illustrates the quantification of death induced in 293-EBNA cells by their transfection with p55-Fas chimera or with p55-R, together with an empty vector, a MORT1 deletion mutant lacking the MACH-binding region (MORT1 (92-208)), or MACHα molecules containing a nonfunctional CED3/ICE region. […] Data are from at least two independent experiments and are expressed as in FIGS. 14A-F and 15.

B1: MACHα1 (C360S): MACHα1 mutant in which the catalytic cysteine Cys360 is replaced by Ser (protein)
chain: MDFSRNLYDIGEQLDSEDLASLKFLSLDYIPQRKQEPIKDALMLFQRLQEKRMLEESNLSFLKELLFRINRLDLLITYLNTRKEEMERELQTPGRAQISAYRVMLYQISEEVSRSELRSFKFLLQEEISKCKLDDDMNLLDIFIEMEKRVILGEGKLDILKRVCAQINKSLLKIINDYEEFSKERSSSLEGSPDEFSNGEELCGVMTISDSPREQDSESQTLDKVYQMKSKPRGYCLIINNHNFAKAREKVPKLHSIRDRNGTHLDAGALTTTFEELHFEIKPHDDCTVEQIYEILKIYQLMDHSNMDCFICCILSHGDKGIIYGTDGQEAPIYELTSQFTGLKCPSLAGKPKVFFIQASQGDNYQKGIPVETDSEEQPYLEMDLSSPQTRYIPDEADFLLGMATVNNCVSYRNPAEGTWYIQSLCQSLRERCPRGDDILTILTEVNYEVSNKDDKKNMGKQMPQPTFTLRKKLVFPSD
  protection against Fas/APO1 cytotoxicity (p55-Fas chimera): protected
